The values below come from US20220119513A1 (ZOETIS SERVICES, published 2022).

In experiment [1] the target is T1, TGFβ1 (R&D Systems).
T1 construct: also called TGFB1
The experiment can be described thus: SPR full titration.

Another experiment deals with T2, TGFβ2 (R&D Systems).
T2 construct: also called TGFB2
T2 sequence (P61812 303-414, species assumed, looked up): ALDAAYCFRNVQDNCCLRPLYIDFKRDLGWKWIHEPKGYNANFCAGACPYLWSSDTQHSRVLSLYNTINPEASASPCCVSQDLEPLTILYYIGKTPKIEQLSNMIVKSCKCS
The experiment can be described thus: SPR full titration.

The target of another experiment is T3, TGFβ3 (R&D Systems) (Homo sapiens (Human), UniProt P10600 301-412, Active TGFβ3 is a disulfide-linked homodimer of this chain; one copy is given.).
T3 construct: also called TGFB3
T3 sequence: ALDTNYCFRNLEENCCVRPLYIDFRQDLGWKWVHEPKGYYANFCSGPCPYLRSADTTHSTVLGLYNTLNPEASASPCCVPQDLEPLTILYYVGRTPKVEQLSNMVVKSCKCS
The experiment can be described thus: SPR full titration.

In experiment [2] the target is T1, TGFβ1 (R&D Systems). The experiment can be described thus: single point SPR.

Positions count from the first letter of the chain named. In names and notes the source's numbering stands.

T1 sequence (P01137 279-390): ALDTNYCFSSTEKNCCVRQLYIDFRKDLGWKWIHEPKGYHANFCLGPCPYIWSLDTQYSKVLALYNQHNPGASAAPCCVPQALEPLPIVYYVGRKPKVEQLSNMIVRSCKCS

B1: affinity matured HcLb 269 (antibody, V domains shown)
VH: EVQLVQSGAEVKKPGASVKVSCKTSGYTFMTYWMNWVRQAPGAGLDWMGQIFPAWGMTNYNEMFEGRVTLTADTSTSTAYMELSSLRAGDIAVYYCARGYGNYALDAMDYWGQGTLVTVSS
VL: DIVMTQTPPSLSVSPRETASISCRASESVDSYGNSFMHWYLQKPGQSPQLLIYLASNLESGVSDRFSGSGSGTDFTLRISRVEANDTGVYYCQQNDEDPLSFGQGTK
notes: full IgG; also called canHcLb/55SW/100DY/57SM/30IM + canHcLb/237ND/242TS
Regarding B1, the Kd (commonly a measure of binding affinity in units of concentration) in the experiment with TGFβ1 (R&D Systems) [1] is 4.4 nM; with TGFβ2 (R&D Systems), 3.05 nM; in the experiment with TGFβ3 (R&D Systems), 0.99 nM.

B2: affinity matured HcLb 270 (antibody, V domains shown)
VH: B1 VH
VL: B1 VL
notes: full IgG; also called canHcLb/55SW/100DY/57SV/30IM + canHcLb/237ND/242TS
Regarding B2, binding with TGFβ3 (R&D Systems) was characterised by a dissociation constant (Kd) of 1.19 nM.

B3: affinity matured HcLb 266 (antibody, V domains shown)
VH: B1 VH with T28I, T31K
VL: B1 VL
notes: full IgG; also called canHcLb/55SW/100DY/30IM/31TK/28TI/57SM + canHcLb/237ND/242TS
Take B3: the Kd with TGFβ1 (R&D Systems) [1] was found to be 2.4 nM; with TGFβ2 (R&D Systems), 2.9 nM; with TGFβ3 (R&D Systems), 0.453 nM.

B4: affinity matured HcLb 264 (antibody, V domains shown)
VH: B1 VH with T28I, T31K, M57S
VL: B1 VL
notes: full IgG; also called canHcLb/55SW/100DY/30IM/31TK/28TI + canHcLb/237ND/242TS
Turning to B4, the Kd in the experiment with TGFβ1 (R&D Systems) [1] was determined as 2.69 nM; with TGFβ2 (R&D Systems), 3.89 nM; in the experiment with TGFβ3 (R&D Systems) it was 3.75 nM.

B5: affinity matured HcLb 275 (antibody, V domains shown)
VH: B1 VH with T28K, M30W, T31F
VL: B1 VL
notes: full IgG; also called canHcLb/55SW/100DY/57SM/30IW/31TF/28TK + canHcLb/237ND/242TS
Take B5: the Kd with TGFβ1 (R&D Systems) [1] was found to be 2.39 nM; with TGFβ2 (R&D Systems), 2.91 nM; in the experiment with TGFβ3 (R&D Systems) it was 0.824 nM.

B6: affinity matured HcLb 265 (antibody, V domains shown)
VH: B1 VH with T31K
VL: B1 VL
notes: full IgG; also called canHcLb/55SW/100DY/30IM/31TK/57SM + canHcLb/237ND/242TS
B6: the Kd with TGFβ1 (R&D Systems) [1] came to 3.24 nM; with TGFβ2 (R&D Systems), 2.82 nM; in the experiment with TGFβ3 (R&D Systems) it was 0.7 nM.

B7: affinity matured HcLb 272 (antibody, V domains shown)
VH: B1 VH with T28K, T31F
VL: B1 VL
notes: full IgG; also called canHcLb/55SW/100DY/57SM/30IM/31TF/28TK + canHcLb/237ND/242TS
As to B7, the Kd with TGFβ1 (R&D Systems) [1] was 2.39 nM; with TGFβ2 (R&D Systems), 2.02 nM; in the experiment with TGFβ3 (R&D Systems), 0.895 nM.

B8: affinity matured HcLb 205 (antibody, V domains shown)
VH: B1 VH with T28I, M30I, M57S
VL: B1 VL
notes: full IgG; also called canHcLb/S55W/D100Y/T28/I + canHcLb/237ND/242TS
On to B8, for which the dissociation constant Kd in the experiment with TGFβ1 (R&D Systems) [1] was 1.78 nM; with TGFβ2 (R&D Systems), 2.09 nM; in the experiment with TGFβ3 (R&D Systems), 0.005 nM.

B9: affinity matured HcLb 271 (antibody, V domains shown)
VH: B1 VH with T31F
VL: B1 VL
notes: full IgG; also called canHcLb/55SW/100DY/57SM/30IM/31TF + canHcLb/237ND/242TS
As for B9, the Kd with TGFβ1 (R&D Systems) [1] was found to be 2.3 nM; with TGFβ2 (R&D Systems) it was 1.28 nM; with TGFβ3 (R&D Systems), 0.957 nM.

B10: Can-SL501-VH3 D108E / Can-SL501-VL2 (antibody, V domains shown)
VH: EVQLVESGGDLVKPGGSLRLSCVASGFTFSSYGMHWVRQAPGKELEWVAVISYDGSIKYYADAVKGRFTISRDNAKNTLYLQMNSLRAEDTAVYYCARTGEYSGYDTEPQYSWGQGTTVTVSS
VL: EIVMTQSPGSLAGSAGESVSINCRASQGIGDDLGWYQQKPGERPKLLIYGTSTLQSGVPARFSSSGSGTDFTLTINNLQAEDVGDYYCLQDSNYPLTFGAGTK
As for B10, the equilibrium dissociation constant (Kd) with TGFβ1 (R&D Systems) [2] turned out to be 0.341 nM.

B11: Can-SL501-VH3 S112P / Can-SL501-VL2 (antibody, V domains shown)
VH: B10 VH with E108D, S112P
VL: B10 VL
Consider B11, for which the Kd with TGFβ1 (R&D Systems) [2] was determined as 2.8 nM.

B12: Can-SL501-VH3 P109H / Can-SL501-VL2 (antibody, V domains shown)
VH: B10 VH with E108D, P109H
VL: B10 VL
As for B12, the Kd with TGFβ1 (R&D Systems) [2] is 1.35 nM.

B13: Can-SL501-VH3 Y111V / Can-SL501-VL2 (antibody, V domains shown)
VH: B10 VH with E108D, Y111V
VL: B10 VL
Regarding B13, in the experiment with TGFβ1 (R&D Systems) [2], the affinity, expressed as Kd, was 0.93 nM.

B14: Can-SL501-VH3 S112N / Can-SL501-VL2 (antibody, V domains shown)
VH: B10 VH with E108D, S112N
VL: B10 VL
On to B14, for which the dissociation constant Kd with TGFβ1 (R&D Systems) [2] turned out to be 3.4 nM.

B15: Can-SL501-VH3 S112A / Can-SL501-VL2 (antibody, V domains shown)
VH: B10 VH with E108D, S112A
VL: B10 VL
Molecule B15 showed a Kd in the experiment with TGFβ1 (R&D Systems) [2] of 0.877 nM.

B16: Can-SL501-VH3 Q110T / Can-SL501-VL2 (antibody, V domains shown)
VH: B10 VH with E108D, Q110T
VL: B10 VL
B16: the Kd with TGFβ1 (R&D Systems) [2] is 5.61 nM.

B17: Can-SL501-VH3 D108H / Can-SL501-VL2 (antibody, V domains shown)
VH: B10 VH with E108H
VL: B10 VL
In the experiment with TGFβ1 (R&D Systems) [2], B17 showed a Kd of 1.83 nM.

B18: Can-SL501-VH3 Q110R / Can-SL501-VL2 (antibody, V domains shown)
VH: B10 VH with E108D, Q110R
VL: B10 VL
For B18, in the experiment with TGFβ1 (R&D Systems) [2], the Kd turned out to be 8.38 nM.

B19: Can-SL501-VH3 D108S / Can-SL501-VL2 (antibody, V domains shown)
VH: B10 VH with E108S
VL: B10 VL
B19: binding in the experiment with TGFβ1 (R&D Systems) [2] was put at a Kd of 0.724 nM.

B20: Can-SL501-VH3 S112L / Can-SL501-VL2 (antibody, V domains shown)
VH: B10 VH with E108D, S112L
VL: B10 VL
Molecule B20 returned a Kd with TGFβ1 (R&D Systems) [2] of 6.97 nM.

B21: Can-SL501-VH3 Q110V / Can-SL501-VL2 (antibody, V domains shown)
VH: B10 VH with E108D, Q110V
VL: B10 VL
In the experiment with TGFβ1 (R&D Systems) [2], B21 registered a Kd of 7.37 nM.

B22: Can-SL501-VH3 S112G / Can-SL501-VL2 (antibody, V domains shown)
VH: B10 VH with E108D, S112G
VL: B10 VL
The molecule B22 yielded a Kd in the experiment with TGFβ1 (R&D Systems) [2] of 0.762 nM.

B23: Can-SL501-VH3 D108T / Can-SL501-VL2 (antibody, V domains shown)
VH: B10 VH with E108T
VL: B10 VL
On to B23, for which binding with TGFβ1 (R&D Systems) [2] was put at a Kd of 0.798 nM.

B24: Can-SL501-VH3 D108N / Can-SL501-VL2 (antibody, V domains shown)
VH: B10 VH with E108N
VL: B10 VL
Molecule B24 displayed a Kd with TGFβ1 (R&D Systems) [2] of 9.68 nM.

B25: Can-SL501-VH3 Y111M / Can-SL501-VL2 (antibody, V domains shown)
VH: B10 VH with E108D, Y111M
VL: B10 VL
With B25, the dissociation constant (Kd) with TGFβ1 (R&D Systems) [2] turned out to be 1.17 nM.

B26: Can-SL501-VH3 S112T / Can-SL501-VL2 (antibody, V domains shown)
VH: B10 VH with E108D, S112T
VL: B10 VL
B26 yielded a Kd with TGFβ1 (R&D Systems) [2] of 3.51 nM.

B27: Can-SL501-VH3 Q110S / Can-SL501-VL2 (antibody, V domains shown)
VH: B10 VH with E108D, Q110S
VL: B10 VL
The molecule B27 registered a Kd with TGFβ1 (R&D Systems) [2] of 6.4 nM.

B28: Can-SL501-VH3 P109Y / Can-SL501-VL2 (antibody, V domains shown)
VH: B10 VH with E108D, P109Y
VL: B10 VL
B28: the Kd with TGFβ1 (R&D Systems) [2] stood at 8.4 nM.

B29: Can-SL501-VH3 Y111P / Can-SL501-VL2 (antibody, V domains shown)
VH: B10 VH with E108D, Y111P
VL: B10 VL
Turning to B29, binding with TGFβ1 (R&D Systems) [2] was put at a Kd of 7.46 nM.

B30: Can-SL501-VH3 P109W / Can-SL501-VL2 (antibody, V domains shown)
VH: B10 VH with E108D, P109W
VL: B10 VL
Regarding B30, binding in the experiment with TGFβ1 (R&D Systems) [2] was characterised by a dissociation constant (Kd) of 6.9 nM.

B31: Can-SL501-VH3 D108Q / Can-SL501-VL2 (antibody, V domains shown)
VH: B10 VH with E108Q
VL: B10 VL
For B31, the Kd in the experiment with TGFβ1 (R&D Systems) [2] stood at 1.25 nM.

B32: Can-SL501-VH3 P109F / Can-SL501-VL2 (antibody, V domains shown)
VH: B10 VH with E108D, P109F
VL: B10 VL
As for B32, in the experiment with TGFβ1 (R&D Systems) [2], the affinity, expressed as Kd, was 0.534 nM.

B33: Can-SL501-VH3 Y111H / Can-SL501-VL2 (antibody, V domains shown)
VH: B10 VH with E108D, Y111H
VL: B10 VL
B33: in the experiment with TGFβ1 (R&D Systems) [2], the Kd stood at 4.5 nM.

B34: Can-SL501-VH3 P109S / Can-SL501-VL2 (antibody, V domains shown)
VH: B10 VH with E108D, P109S
VL: B10 VL
For the molecule B34, in the experiment with TGFβ1 (R&D Systems) [2], binding was put at a Kd of 4.97 nM.

B35: Can-SL501-VH3 Q110H / Can-SL501-VL2 (antibody, V domains shown)
VH: B10 VH with E108D, Q110H
VL: B10 VL
With B35, binding with TGFβ1 (R&D Systems) [2] was characterised by a dissociation constant (Kd) of 5.76 nM.

B36: Can-SL501-VH3 P109G / Can-SL501-VL2 (antibody, V domains shown)
VH: B10 VH with E108D, P109G
VL: B10 VL
B36 came in with a Kd with TGFβ1 (R&D Systems) [2] of 1.59 nM.

B37: Can-SL501-VH3 Y111W / Can-SL501-VL2 (antibody, V domains shown)
VH: B10 VH with E108D, Y111W
VL: B10 VL
Molecule B37 registered a Kd with TGFβ1 (R&D Systems) [2] of 13.9 nM.

B38: Can-SL501-VH3 D108P / Can-SL501-VL2 (antibody, V domains shown)
VH: B10 VH with E108P
VL: B10 VL
As for B38, the Kd with TGFβ1 (R&D Systems) [2] turned out to be 3.51 nM.
